Series [1] concerns the target T1, LurR (Desulfovibrio vulgaris Hildenborough) (UniProt Q726T3).
T1 sequence: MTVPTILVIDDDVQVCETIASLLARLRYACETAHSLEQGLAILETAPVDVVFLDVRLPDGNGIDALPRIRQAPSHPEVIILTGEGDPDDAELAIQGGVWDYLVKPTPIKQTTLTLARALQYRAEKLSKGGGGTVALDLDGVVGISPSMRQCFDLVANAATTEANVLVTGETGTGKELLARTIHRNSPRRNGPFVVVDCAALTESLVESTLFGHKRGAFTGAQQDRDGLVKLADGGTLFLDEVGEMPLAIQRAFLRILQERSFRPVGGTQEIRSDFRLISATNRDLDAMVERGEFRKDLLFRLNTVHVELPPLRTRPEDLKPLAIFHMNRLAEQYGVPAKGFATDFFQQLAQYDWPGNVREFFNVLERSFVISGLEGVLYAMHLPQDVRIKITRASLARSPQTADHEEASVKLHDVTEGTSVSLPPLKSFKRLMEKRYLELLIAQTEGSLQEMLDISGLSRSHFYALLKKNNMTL
Description: EMSA. Particulars: 10 mM Tris-HCl pH 7.5, 50 mM KCl, 5 mM MgCl2, 1 ug/ml poly dI.dC, 100 fmol biotinylated DNA in 20 ul, room temperature, 20 min. A general note: A gel shift assay detects complexes by their altered migration in electrophoresis.

Series [2] deals with T2, PhoB (Desulfovibrio vulgaris Hildenborough) (UniProt Q72D47).
T2 sequence: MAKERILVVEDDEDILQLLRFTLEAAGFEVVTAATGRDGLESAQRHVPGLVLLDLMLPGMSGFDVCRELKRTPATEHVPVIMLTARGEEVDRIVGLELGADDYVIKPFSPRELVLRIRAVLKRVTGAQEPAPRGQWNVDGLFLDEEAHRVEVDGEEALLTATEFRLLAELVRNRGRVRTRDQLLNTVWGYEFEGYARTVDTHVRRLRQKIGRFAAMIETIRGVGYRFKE
Description: EMSA. Particulars: 10 mM Tris-HCl pH 7.5, 50 mM KCl, 5 mM MgCl2, 1 ug/ml poly dI.dC, 100 fmol biotinylated DNA in 20 ul, room temperature, 20 min.

The target in series [3] is T3, LurR (Desulfovibrio vulgaris Hildenborough, UniProt Q726T3 1-474).
T3 sequence: T1 sequence
The series is described as follows: EMSA; 0.5-1 pmol LurR; 10 mM Tris-HCl pH 7.5, 50 mM KCl, 5 mM MgCl2, 1 ug/ml poly dI.dC, 100 fmol biotinylated DNA in 20 ul, room temperature, 20 min. Particulars: protein: recombinant; chain copies: 2; label: biotin on one strand.

As for “CGAGAAACGACAGCCGGAGGAAAAACCAAGGTTACAGCATAGTTACAGATAACACACCATTGGCACATTTCTTGTTAAACTTGCGGAGTTCGCGCTCTCCGCGCAACGGTCTCGGGCTCGCCCGCAAGCACCGTGAACTCCAGCCTCCGGCCCCCGGCGGCATGCCATTTTCACCACGCGCCCACCACAGGGCAGAAAAAGGAGATCGTAAATGGCCAAG (double strand) [por promoter substrate IV (220 bp)]”, the values for the binding entry in series [1] and in series [2] were “no binding” and “binds”, respectively.
“GTCAGTAGGGTAACGCCACACGAAGTCCGCTTTTCAAGACACGCTACCACGCAACCCCATCCACGAGAAACGACAGCCGGAGGAAAAACCAAGGTTACAGCATAGTTACAGATAACACACCATTGGCACATTTCTTGTTAAACTTGCGGAGTTCGCGCTCTCCGCGCAACGGTCTCGGGCTCGCCCGCAAGCACCGTGAACTCCAGCCTCCGGCCCCCGGCGGCATGCCATTTTCACCACGCGCCCACCACAGGGCAGAAAAAGGAGATCGTAAATGGCCAAG (double strand) [por promoter substrate III (283 bp)]”: the binding entry in series [1] and in series [2] was “binds” throughout.

B1: por LurR motif mut oligo (dsDNA)
DNA 1: GCCACACGAACTGCGCTTTTCAATCAACGCTACCAC
DNA 2: GTGGTAGCGTTGATTGAAAAGCGCAGTTCGTGTGGC
In the case of B1, in series [3], the binding result is on record as “no binding”.

Values taken from publication PMC6456213, “LurR is a regulator of the central lactate oxidation pathway in sulfate-reducing Desulfovibrio species”.
